The target of this test is 3-methylaspartate ammonia lyase from Citrobacter amalonaticus (Citrobacter amalonaticus) (UniProt O66145). Briefly: SEC.

Regarding “3-methylaspartate ammonia lyase from Citrobacter amalonaticus (from UniProt O66145 1-413) (enzyme)”, the stoichiometry N worked out at 2.

For orientation: stoichiometry N means the number of molecules, sites or subunits per partner or assembly.

(Values after publication doi:10.1101/583088.)
